T1: FcγRIIb (human, UniProt P31994 43-217)
T1 construct: extracellular domain; also called 2b; not shown: His tag at the C terminus
T1 sequence (looked up): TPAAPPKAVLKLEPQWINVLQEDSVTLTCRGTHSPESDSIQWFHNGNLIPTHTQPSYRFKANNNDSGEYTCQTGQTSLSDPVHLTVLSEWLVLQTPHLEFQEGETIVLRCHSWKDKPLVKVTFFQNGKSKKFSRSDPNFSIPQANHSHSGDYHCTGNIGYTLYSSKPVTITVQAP

T2: FcγRIIa H (human, UniProt P12318 34-217)
T2 construct: extracellular domain; also called FcγRIIa type H; 2aH; not shown: His tag at the C terminus
T2 sequence (looked up): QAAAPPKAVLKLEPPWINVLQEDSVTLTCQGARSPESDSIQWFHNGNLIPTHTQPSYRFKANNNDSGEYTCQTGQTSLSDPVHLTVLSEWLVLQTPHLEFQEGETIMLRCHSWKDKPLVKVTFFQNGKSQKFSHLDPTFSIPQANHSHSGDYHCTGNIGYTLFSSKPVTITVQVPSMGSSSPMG

T3: human FcγRIIb extracellular domain with C-terminal His tag (human, UniProt P31994 43-217)
T3 construct: extracellular domain; also called FcgRIIb; 2b; not shown: His tag attached to the C terminus
T3 sequence (looked up): T1 sequence (looked up)

B1: GpH7-A5/GpH7-B3 variant T335_01G/GpL16-k0 (antibody, human IgG1, kappa)
heavy 1: not shown
heavy 2: not shown
light: DIVMTQSPLSLPVTPGEPASISCQASESLVHSNRNTYLHWYLQKPGQSPQLLIYKVSNRFSGVPDRFSGSGSGTDFTLKISRVEAEDVGVYYCSQNTHVPPTFGQGTKVEIERTVAAPSVFIFPPSDEQLKSGTASVVCLLNNFYPREAKVQWKVDNALQSGNSQESVTEQDSKDSTYSLSSTLTLSKADYEKHKVYACEVTHQGLSSPVTKSFNRGEC
notes: Heterodimerized IgG1; mutation in the GpH7-B3 chain only; also called He Ab
B2: GpH7-A5/GpH7-B3 variant I332_18N/GpL16-k0 (antibody, human IgG1, kappa)
heavy 1: not shown
heavy 2: not shown
light: B1 light
notes: as for B1
B3: GpH7-A5/GpH7-B3 variant T335_02A/GpL16-k0 (antibody, human IgG1, kappa)
heavy 1: not shown
heavy 2: not shown
light: B1 light
notes: as for B1
B4: GpH7-A5/GpH7-B3 variant I336_10E/GpL16-k0 (antibody, human IgG1, kappa)
heavy 1: not shown
heavy 2: not shown
light: B1 light
notes: as for B1
B5: GpH7-A5/GpH7-B3 variant S324_09D/GpL16-k0 (antibody, human IgG1, kappa)
heavy 1: not shown
heavy 2: not shown
light: B1 light
notes: as for B1
B6: GpH7-A5/GpH7-B3 variant S324_02A/GpL16-k0 (antibody, human IgG1, kappa)
heavy 1: not shown
heavy 2: not shown
light: B1 light
notes: as for B1
B7: GpH7-A5/GpH7-B3 variant Y296_18N/GpL16-k0 (antibody, human IgG1, kappa)
heavy 1: not shown
heavy 2: not shown
light: B1 light
notes: as for B1
B8: GpH7-A5/GpH7-B3 variant Y300_07I/GpL16-k0 (antibody, human IgG1, kappa)
heavy 1: not shown
heavy 2: not shown
light: B1 light
notes: as for B1
B9: GpH7-A5/GpH7-B3 variant Y300_08L/GpL16-k0 (antibody, human IgG1, kappa)
heavy 1: not shown
heavy 2: not shown
light: B1 light
notes: as for B1
B10: GpH7-A5/GpH7-B3 variant Y296_16H/GpL16-k0 (antibody, human IgG1, kappa)
heavy 1: not shown
heavy 2: not shown
light: B1 light
notes: as for B1
B11: GpH7-A5/GpH7-B3 variant S324_15Y/GpL16-k0 (antibody, human IgG1, kappa)
heavy 1: not shown
heavy 2: not shown
light: B1 light
notes: as for B1
B12: GpH7-B3 variant L328_15Y/GpL16-k0 (Ho Ab) (antibody, human IgG1, kappa)
heavy: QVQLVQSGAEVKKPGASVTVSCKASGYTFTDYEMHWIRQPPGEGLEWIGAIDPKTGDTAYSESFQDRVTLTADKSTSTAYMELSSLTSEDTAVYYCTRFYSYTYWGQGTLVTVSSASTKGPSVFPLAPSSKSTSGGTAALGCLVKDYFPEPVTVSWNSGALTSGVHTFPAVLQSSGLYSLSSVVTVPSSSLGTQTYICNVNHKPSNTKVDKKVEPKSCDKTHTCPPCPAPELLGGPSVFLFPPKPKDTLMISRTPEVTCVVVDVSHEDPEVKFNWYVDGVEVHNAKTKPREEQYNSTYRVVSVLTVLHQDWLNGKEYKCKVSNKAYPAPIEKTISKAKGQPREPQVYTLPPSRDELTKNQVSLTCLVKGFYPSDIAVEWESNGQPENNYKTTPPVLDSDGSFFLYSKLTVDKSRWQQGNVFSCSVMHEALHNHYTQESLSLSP
light: B1 light
notes: Anti-glypican-3 IgG1; mutation in both H chains; also called L328Y homodimerized antibody
B13: GpH7-A5/GpH7-B3 variant T335_05P/GpL16-k0 (antibody, human IgG1, kappa)
heavy 1: not shown
heavy 2: not shown
light: B1 light
notes: as for B1
B14: GpH7-A5/GpH7-B3 variant T335_06M/GpL16-k0 (antibody, human IgG1, kappa)
heavy 1: not shown
heavy 2: not shown
light: B1 light
notes: as for B1
B15: GpH7-A5/GpH7-B3 variant I332_16H/GpL16-k0 (antibody, human IgG1, kappa)
heavy 1: not shown
heavy 2: not shown
light: B1 light
notes: as for B1
B16: GpH7-B3 variant K334_15Y/GpL16-k0 (Ho Ab) (antibody, human IgG1, kappa)
heavy: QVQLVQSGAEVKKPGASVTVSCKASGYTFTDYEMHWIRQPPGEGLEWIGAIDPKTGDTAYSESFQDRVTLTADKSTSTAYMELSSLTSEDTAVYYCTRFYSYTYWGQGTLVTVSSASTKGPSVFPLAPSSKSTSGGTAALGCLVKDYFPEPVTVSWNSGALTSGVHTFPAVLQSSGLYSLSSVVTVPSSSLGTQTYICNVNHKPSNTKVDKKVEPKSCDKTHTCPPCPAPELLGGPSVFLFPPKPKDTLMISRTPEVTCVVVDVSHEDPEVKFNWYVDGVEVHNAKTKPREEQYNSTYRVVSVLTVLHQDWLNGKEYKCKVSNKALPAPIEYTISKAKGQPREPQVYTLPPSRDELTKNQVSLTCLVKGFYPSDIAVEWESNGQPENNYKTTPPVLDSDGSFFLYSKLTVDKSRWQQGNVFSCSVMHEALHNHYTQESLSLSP
light: B1 light
notes: Anti-glypican-3 IgG1; mutation in both H chains; also called K334Y homodimerized antibody
B17: GpH7-A5/GpH7-B3 variant S324_04F/GpL16-k0 (antibody, human IgG1, kappa)
heavy 1: not shown
heavy 2: not shown
light: B1 light
notes: as for B1
B18: GpH7-A5/GpH7-B3 variant I336_18N/GpL16-k0 (antibody, human IgG1, kappa)
heavy 1: not shown
heavy 2: not shown
light: B1 light
notes: as for B1
B19: GpH7-A5/GpH7-B3 variant I332_19Q/GpL16-k0 (antibody, human IgG1, kappa)
heavy 1: not shown
heavy 2: not shown
light: B1 light
notes: as for B1
B20: GpH7-A5/GpH7-B3 variant Y296_04F/GpL16-k0 (antibody, human IgG1, kappa)
heavy 1: not shown
heavy 2: not shown
light: B1 light
notes: as for B1
B21: GpH7-A5/GpH7-B3 variant I332_03V/GpL16-k0 (antibody, human IgG1, kappa)
heavy 1: not shown
heavy 2: not shown
light: B1 light
notes: as for B1
B22: GpH7-A5/GpH7-B3 variant Y296_09D/GpL16-k0 (antibody, human IgG1, kappa)
heavy 1: not shown
heavy 2: not shown
light: B1 light
notes: as for B1

Tests used:
FcγRIIb = molecular target: T1, FcγRIIb; assay: SPR (Biacore), antibody captured, FcγR as analyte; binding relative to GpH7-A5/GpH7-B3/GpL16-k0 = 100
Method: (§1) The heterodimerized antibodies He Abs in which one of the H chains was introduced with an alteration were assayed for their binding activities to each activating FcγR and inhibitory FcγR according to the method described in Example 4. […] The activating FcγRs in FIGS. 26, 27, 28, and 29 are FcγRIa, FcγRIIa (R), FcγRIIa (H), and FcγRIIIa, respectively.
(§2) Analysis of interaction between objective antibody and the FcγR was carried out using Biacore T100 (GE Healthcare). HBS-EP+ (GE Healthcare) was used as the running buffer, and the measurement temperature was set to 25° C. Chips produced by immobilizing the antigen peptide by the amine coupling method to a Series S Sencor Chip CM5 (GE Healthcare), or alternatively, chips produced by allowing preliminarily biotinylated antigen peptides to interact with and immobilize onto a Series S Sensor Chip SA (certified) (GE Healthcare) were used. Antibodies of interest were captured onto an antigen peptide-immobilized chip, and allowed to interact to each FcγR diluted with running buffer. To regenerate and repeatedly use the chip, the antibodies captured on the chip were washed off by reacting 10 mM glycine-HCl, pH 1.5.

FcγRIIa H = molecular target: T2, FcγRIIa H; assay: as above
Method: as §1, §2

[1] = molecular target: T3, human FcγRIIb extracellular domain with …; assay: SPR (Biacore T100), antibody captured on antigen peptide chip, FcγRIIb as analyte; relative binding
Method: as §2

Binder | He/Con_2b (FcγRIIb) | He/Con_2aH (FcγRIIa H) | Ho/Con_2b [1]
B1 | 96.7 % of control | 103 % of control | 
B2 | 89.9 % of control | 110 % of control | 
B3 | 94 % of control | 101 % of control | 
B4 | 89.8 % of control | 102 % of control | 
B5 | 85.8 % of control | 106 % of control | 
B6 | 78.3 % of control | 102 % of control | 
B7 | 91.5 % of control | 104 % of control | 
B8 | 74.5 % of control | 108 % of control | 
B9 | 73.6 % of control | 108 % of control | 
B10 | 92.2 % of control | 104 % of control | 
B11 | 88.2 % of control | 102 % of control | 
B12 |  |  | 272 % of control GpH7-B3/GpL16-k0 (=100)
B13 | 99.9 % of control | 108 % of control | 
B14 | 99.4 % of control | 103 % of control | 
B15 | 93 % of control | 109 % of control | 
B16 |  |  | 126 % of control GpH7-B3/GpL16-k0 (=100)
B17 | 89.1 % of control | 101 % of control | 
B18 | 97.6 % of control | 103 % of control | 
B19 | 94.3 % of control | 108 % of control | 
B20 | 99.2 % of control | 100 % of control | 
B21 | 80.7 % of control | 105 % of control | 
B22 | 98.9 % of control | 104 % of control | 
